Assay: protease stability score; higher = more stable; yeast display proteolysis, trypsin and chymotrypsin;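 further: log10 excess protease needed over predicted unfolded state with 0 meaning unfolded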

Work on “DEKEVQKVLETMAKMFVNGNNEEVKKLGHDDIQVQYGDEEKHGPDAMVDFIKKYQDLGAEVEYKHLKVEGNEVEVDVEATLGGKTVRYKVKYEATGHKVHRVEVKYTDEAKDAIKKG” yielded a protease stability score of 0.657.

In the case of “DENVVKRVHDALQTNDWQQLADLFDKDARVHVGEFQLHGHEEVQKFVDLQRKQIDHMEVRSIEIDGERAEAEFVIRVDGRKREAEITIRANNGKAKEMKIQFTDKDFERKMREKME”, the protease stability score is reported as 0.836.

Sequence “EEELLERIKTFVKVYEHGDFKRLHRNLDKDVRVVVGDKHVRGREEAVRDMSEELRNMDQKIDFKTMHITNGKANLDFHFQNTVNGQPRRDRAHLIIRLHNGKFQEIKIQFSEEQERRQKG” has a protease stability score of 0.608.

In the case of “DEDAVRLAHKFQDVLNKGDPDKAMRLADPNARVQIGDTEIRGREQLSHHVNEMSNSIRFDLKHVDAQTRGDHVDVRVDQINEVDGRPTRNTDKMTIQIKNGKIVNVNVRVDEDRKQQERD”, the protease stability score is reported as -0.632.

“DEEDLNKFAEHVVHALQEGNPDQLMHLADENVKMTVGDTSVEGKDQVSEYWTEMKERIDHFSYTSVDVRGNTIEIRFTADVDGRELRQVLIIEVRNGRAKSISIEDG” showed a protease stability score of 1.88.

Work on “DEDHASRQAKKFIDAMRSGDEELAKNLVDKDVTAIYGDRTVNGREQVMKMVKEFRNQADEITVDDMKVKNGRVVIHLKMDINGEQEVVIVILDIRNGRAKEISFERR” yielded a protease stability score of 1.27.

For “DESQAKEFVDNFKTNNREELQKQVDKDAKMIVGNKEYHGEEQVQDALRDLNEEVDHLTIKSVELKGNSVTIYFIIVINGTRMTVHVVAVFHNGRVKKEVWTATDEDDKRKIDQVVG”, the protease stability score was 0.281.

Sequence “DEKEQADDAVRQLESAFNQGDWKKLADLFDENARVQYGDKELHGRQKWTTLVRDMEREHDHVEARVKSVHYHNGKIHLKIEIKAETNGRTTSVHVRYVAVVTNGRVEFENAKYS” has a protease stability score of 0.973.

In the case of “DEDAVKVAEKFVEVEETGSEDDFKRLADKDAKIRVGENHVHGRESLLDELRKRRKQINIVIHHVRAEDRGDKVDVEIEAVDERNGKPNQYNVKFKVKMHNGRVKQIDRDRDR”, the protease stability score is reported as 0.168.

Work on “KEEDVEKVAKRLITLVQEGNVDVMRKYLAPDVEVQYGDVEVKGPDQVVKHVRDLRRQGYRVQLKEVQVEGNTAETVLDYQAGDQKYTATVKAQVKGGVLKRATVKASPEMKKVVKAG” yielded a protease stability score of 1.38.

For “DHELENLVEKIMSALTRNNPEDIRSLFDPNARFNIGDKTWNGMDRYITELKKEVDEWDMSVELHSVDIQGNKASAHVEQTAHHDGEPDSFEYTMKLDFHNGKARRQRVNSRK”, the protease stability score was -0.248.

“DHEETFRKLLHDLDEAMRRGDTKRIQDLADENVQLEVGDKTIHGREEFAKFWMDLQKRVDHLELHVEHIHVSGDRIRAKIVLVFHHNGQTRTRSAQVVLVQENGRNVFTKIQFN” gave a protease stability score of 1.17.

“DETAKKNVELYVQAFEDNDERKLNHMMDPNAHFRIGDRNVHGRDQVKDEVEKRRKEQSVKFKDVKVDVQGDKATIEIRWVVDKNGEPTEDVHKVDLKIHNGRAKYMQWDSVR” gave a protease stability score of -0.07.

“DEEKMDRAKEHYKAIQKGDHERARQLADPNATFVIGDKTIHGREEYADQMKKRRDHIRIEIKSVTFNEEEGRVDVKIEQVRQHNGKPKKFRQDVKFDVQGDKIHQISVTEKK” gave a protease stability score of 0.189.

Work on “DEDREQEMLEKMVQIWEEGDEEKMVRLADPNVTVRVGDKNVHGRKHLREELQKERKQVDHFYVRHITIHNGTVNLDVEYNHNGQREQATVIAKVHDGRIKELSVHSS” yielded a protease stability score of -0.204.

Work on “DEKEKAEDFMRKMQKIAKTNNPTELDDQFDEDAKLVVGDKRYHGRKQMQKHYKELRKRVDHFRLEVKRIDVSGDKVRFDAKYEADVNGRRETVDMRFVVRRVGDKDRAENAQWK” yielded a protease stability score of 0.285.

Sequence “DDHNVRVMREIQKAIEKNDEKRFKELVDPNVRVRIGDNLIHGRDNVAKELKREMDHMRKNIRSMSIDDEGDHVVINIEYEQNENGHPDTNRVQVSAELHNGKLKEMHISSRQ” has a protease stability score of 1.02.

Work on “DDRIKELADRFMNALQTNDPDKINNLVDPNAKITVGDKSVRGDEQINRTMDQRKRELRQDYDVRSVEVHGNTAIIDVHVTFEHNGEPHKEKQTIIIHVKNGRAVDIKITRHS” yielded a protease stability score of -0.326.

Work on “DDERRARDLFKEHEDNWKNGNHEELVKQADEDARVDVGDKELHGRDDLRRENRRIVEQADHIRFDLKSLDVQGDKVTFDFVVKVDINGRTETRRVQEKFVVTNGRIRLKEATEG” yielded a protease stability score of -0.009.

For “DDEDQKSTAEEIAKALQTGDKDKVTELFDEDARLKIGDTEFHGREQVSRAVHEIKTRVDHMELKDMEFTGDHVRIVYIANVDGHHATFVAHVVLNNGTAKSMSLSVRDERDKESVDK”, the protease stability score was 0.276.

“DEQENEKNVKDVQHAMETGDEELMLRNAPPDVRMEIGDKTLRGREEVSKEFKKFAKQIDRHSIHSIRFRGDKFEINMVVTVNGRHAVVNIELQIHNGKVNSMRVDPHDLEQQKQ” gave a protease stability score of -0.249.

“DETARDRLEELWRTMERNDPDKLTRQADKDVEVHVGDKELHGMKQVATTLAHEMREMDVEIEIREVNVQGNNVEVDMIFRAKVNGKPIHNKASFVVTFNNGKAESIELRVPPEFQKQKRK” gave a protease stability score of -0.222.

Sequence “DDDQRRKFERFITAVRTGSKEDLNKLIDPNAKINVGNHRYHGMEEFAKQVVTHNKDLRFHVRFKELDFSGNRVRVSYEMTMTVNGKPYQFTARVEFDVHDGSVKSVREQISEDVEQRQRN” has a protease stability score of 0.423.

With “DDEKRKDILRKIKENWKRNDHDFFKDMADPNVRAKVGDKLLHGREELEKELREFKKRADHVEIKHVDVTGDNAEVEADIDINGQKRVMVFQVEVHNGKIKHIELDPDDQRKVQK” the protease stability score was 0.145.

“DSHAHNVADEVMRALQENDEDSLRQLLDPNVEFHIGDTTYHGREQVRHWITRLKEQMRVKFDLKDLKVQGDTVHIKLRLEQEHNGQPRQHNVVINVKIDNGRVKKISFQHTK” gave a protease stability score of 1.64.

“DEEWLHRFLQQYRSGDEDQMVRNMDKDVKIDVGDKEIHGREEAERWYRELKKRIDHFEVDHIKIQGESATADVRMNVNGRDVKFTLHVEAHNGRVKYVRLQATSSEVKTRMDRALG” gave a protease stability score of 0.198.

“DDQKARRLVERFIRALQHGDEDLARQLFDKNAKINIGDKTLTGREDVAKYVHHVHRHVDDVSVKSIQVDGDKAEVRVQFDINGKQHQMTFSAKYRNGRVQSATYKSQ” gave a protease stability score of 0.524.

Sequence “DEDHLHRLVKEMVKVLQQGDPDRFMELADKDATAVIGDKRFHGRTQARKAVKEFTDTVDHIRIKTFNAHGDKVTIVVRLDHNGKNAILRIEFQVDNGRFKEVVFDPDHLQDLRR” has a protease stability score of 0.071.

Work on “DDDNKRVVERFLRAQQEGDPDTAKENADENAHFHYGDRRITGRESYAEWMERRKKESRVEFRIDQMNVSGDRIDVHFQMQVRHNGRPERFEARMVIKITNGHIVQVRVEKKE” yielded a protease stability score of 0.207.

In the case of “DERASELAEKIIKALHTGNPQEVQKLVPPDVHVVYGDKNIHGRENAKKYWDQVLRNWRLNIQDFRIDADGDNVTVELHAEFNVNGQPIQARATVTVNVKNGRVKELNVQLPHEDLRRIRQ”, the protease stability score is reported as 0.619.

With “DEKKAKELAETMFKYIQNGDEEKAQKYVDDNVEYKYIDKEYEGKDVVKEVVDKIKKLGVEVKLKRAEVKGDRVTADFEYKHGDNTVRTTVEVQYEGDRVKKARVELTDEARKVIDKG” the protease stability score was 0.352.

For “DERALDVARQLVEALNTGDPETANNLLDKNVHIRVGDKRIHGRKQHSRTVDREKKEIRRHLEKVTNKSKGDKADVDIQFQQTHNGRPTSNQMKMIVEARNGKVKRMSVREHG”, the protease stability score was -0.469.

Sequence “DDDADRRARKLDQARKEGDPDKMRKNMDPNVRMQIGDQEWSGRETIANKLATDLKRMDIEITIKRYTWHNGTADIDADETFNVDGRPNSDKVRMEVHFHNGRVEHQILRVPEEFKHRLHK” has a protease stability score of -0.115.

“DDDARDLMKEVLTAQKNNDPKHVRKLFDPNANIKYGDREVTGMDHAAKTLVDHIQQIRLQIDSVTLEVQGDTIIVHAQMVNDRNGNPDSTRFVLEAKVDGDKFKSQDKQEDS” gave a protease stability score of -0.524.

For “DERDMKAIVRAVKAFRRNNPEEVRENVDENVRIHVGDKEVHGRDQLKRDMEREVKTWRRSIRRISIDNQGDTVNVDIDQEKKHDGDPNREQNVVHFVAQNGKIKSVEQRHDG”, the protease stability score was 0.748.

Sequence “DDEKVKSFMKNVVRAWKHNNPDEMAKLADPNARAHVGDKEVHGRHQVKTMITEQLTRVDHVDIRHVHANGDKITIHATLNVNGRTRSVKIEIRFDNGKITDIRMDPDAVKEIKK” has a protease stability score of 0.199.

Work on “EEEQITKLEEVLKDVETGDPNKLIDNFDPNVRYDYGDKKYHGMTNWAKDVVSKAKEQHVTRHVTDVKVQGNHASMTADVNNDHNGRPHKQKQDIQFTFHNGKIKNVHVQETK” yielded a protease stability score of -0.667.

In the case of “DEEELQSVKEYIENLQTNNESRLRKYADPNAQITVGDKVIHGMEDFQRQMEEDRRHSRISFKSVEFRYHDGKAVVHAEFTHVDNGQPDEVRVDYRFKLHNGRIKSQNVREVK”, the protease stability score is reported as -0.331.

Sequence “DEDEKMKRAMKKLNEVQNTGNEKTLANLMDPNARMDIGDKRYHGREQVTTAVKDIQRRVDHVEWRLTDLKQDGDKLDAKADVIFRTNGTQTNRHADMKLRDVNGQLVIVEYVIS” has a protease stability score of -0.093.

“DDKKAQDFARKFADNLRTGNERQWEKMFDENVRIKYGDKTLHGREVARKEARTFHEQVDHMEVRSITAQGNQLVIMFEVKHNGRTDRMVWRAKVENGKIQHQTVTSQ” showed a protease stability score of -0.084.

In the case of “DEKDHENVARNLVTAIVQGDPDRFKELLDKNVKFKYGETDVKGKDNAERVMKDFIKEADQVRVQTLSFHGEHIVINMVADVNGEEQRFQIRAKVHNGRVKEMVWHSR”, the protease stability score is reported as 1.5.

Sequence “DSEERKTVARELNKVLKENDEEKFKRLADENVKLHYGDKEFHGRERAEQVLREWKKRIDHLEVNHVNNTGDRIVIHATVNVNGVNVHLEFNARLDNGHVTSVRLQYRDEEDRKRLES” has a protease stability score of 0.814.

“DEEQIVNRLWTEAQKNWEEGNETEIANQFDPNARVNVGEKDYHGTEQIMKWVKEILRHADSVRYSIDSIDVNGDTVYVHFTMVMRHNGQKESERIIATMKVDNGEARFTDIKQG” showed a protease stability score of 0.737.

For “DEEEWKELNKEISRIDQHGDERDLARLVDENAKIQIGDKTIRGREDLEKQFDRLRDRFDHIQVQHVENQGDKIRVEVVQRHNGRDETHVKTVKLENGRIKHMEMQHK”, the protease stability score was -0.186.

“DEKKTKELLKEAMKALHNGNEEKVKKLGGPDVEVHAFNYRNRGPEAMVEMARLAQRVGTEFQYREERFEGNRVKTVVEVTVGGDTVRYEVQATVEGGEVKRWEAHVDEKFIEHVEKS” gave a protease stability score of 0.174.

“DEKEIRKLLETMLKAFVNGNLEVVRKMLKDDGEVEYLDTRRHGPDRAVELVKRLLDLGYEVEYKEVHVKGDTVTANVEANADGKTVRFQVTYQARGRRVDNFKVKYDEDAQKVIKHG” gave a protease stability score of 1.79.

“DEEQIKDLLERLMRAQQHGDPDRMANYLDENVRVRIGEKDISGREQYKDWNQEQVERIDHFQVHHIEVQGDKAKIDMEMKVDGKRFRFTVRMHIRDGRIDEFRFDPTVQRKIET” gave a protease stability score of 0.97.

With “DKEDVKKRAEELAEVLQTGDPRKMRDLADKDARLSIGDKEYHGREEISKWVDHMRRDVDHFKLDDVQASGNKMRLTFVLQHNGRRSKFDLDVKYSNGRAKELRFDRK” the protease stability score was 0.267.

Sequence “DDDKQRKVEQVNRAWNEGDEETWKNNFDPNARVNVGEFNYEGMEEISKNIRDQKEQWRIEFKRMDLNMHGNKATAHFEATTNHNGNPDEFRKRLEAEFQGDRLKHMRVTEDR” has a protease stability score of -0.235.

“DDEARKRIRTYWELYNQGNESKLEEMVDKDVRFEVGDKTIEGRRQVSTQLHREVREADVRVDIESIHVTGNKVDVEFRHSRDHNGQPETDQQRAEFNMDNGKIQSVVHRKDG” gave a protease stability score of -0.204.

Reference: the NTF2 design screens of Basanta et al. (2020)
